This note sets out measurements from PMC11160672 (bioRxiv, 2024).

The chains are these.
B1: Acetyl-CoA carboxylase carboxyltransferase subunit AccA (enzyme)
chain: MSLNFLDFEQPIAELEAKIDSLTAVSRQDEKLDINIDEEVHRLREKSVELTRKIFADLGAWQIAQLARHPQRPYTLDYVRLAFDEFDELAGDRAYADDKAIVGGIARLDGRPVMIIGHQKGRETKEKIRRNFGMPAPEGYRKALRLMQMAERFKMPIITFIDTPGAYPGVGAEERGQSEAIARNLREMSRLGVPVVCTVIGEGGSGGALAIGVGDKVNMLQYSTYSVISPEGCASILWKSADKAPLAAEAMGIIAPRLKELKLIDSIIPEPLGGAHRNPEAMAASLKAQLLADLADLDVLSTEDLKNRRYQRLMSYGYA

Assay [1] concerns the target Biotin carboxylase AccC (E. coli, UniProt P24182 1-449). Description: SEC.
Assay [2] addresses B1. Description: cryo-EM structure.

The term stoichiometry N denotes a count of units in the complex or per binding partner.

In the case of B1, the “stoichiometry N” value in assay [1] is roughly 1.

B2: Acetyl-CoA carboxylase carboxyltransferase subunit AccD (enzyme, E. coli, UniProt P0A9Q5 1-304, looked up)
chain: MSWIERIKSNITPTRKASIPEGVWTKCDSCGQVLYRAELERNLEVCPKCDHHMRMTARNRLHSLLDEGSLVELGSELEPKDVLKFRDSKKYKDRLASAQKETGEKDALVVMKGTLYGMPVVAAAFEFAFMGGSMGSVVGARFVRAVEQALEDNCPLICFSASGGARMQEALMSLMQMAKTSAALAKMQERGLPYISVLTDPTMGGVSASFAMLGDLNIAEPKALIGFAGPRVIEQTVREKLPPGFQRSEFLIEKGAIDMIVRRPEMRLKLASILAKLMNLPAPNPEAPREGVVVPPVPDQEPEA
In the case of B2, the “stoichiometry N” value in assay [1] is roughly 1. Besides, the binding result in assay [2] is given as “binds”.
